Earlier results, collected in patent US20250332099A1, “PROCESS FOR FORMULATING COMPOSITIONS COMPRISING GLUCAGON-LIKE-PEPTIDE-2 (GLP-2) ANALOGUES” (ZEALAND PHARMA A/S, priority 2021, published 2025).

Hy-His-Ala-Asp-Gly-Ser-Phe-Ser-Asp-Glu-Met-Asn-Thr-Ile-Leu-Asp-Asn-Leu-Ala-Ala-Arg-Asp-Phe-Ile-Asn-Trp-Leu-Ile-Gln-Thr-Lys-Ile-Thr-Asp-OH [GLP-2 [1-33]]
half-life in humans: around 7 minutes

CC[C@H](C)[C@H](NC(=O)[C@H](Cc1ccccc1)NC(=O)[C@H](CC(=O)O)NC(=O)[C@H](CCCNC(=N)N)NC(=O)[C@H](C)NC(=O)[C@H](C)NC(=O)[C@H](CC(C)C)NC(=O)[C@H](CC(N)=O)NC(=O)[C@H](CC(=O)O)NC(=O)[C@H](CC(C)C)NC(=O)[C@@H](NC(=O)[C@@H](NC(=O)[C@H](CC(N)=O)NC(=O)[C@H](CCSC)NC(=O)[C@H](CCC(=O)O)NC(=O)[C@H](CC(=O)O)NC(=O)[C@H](CO)NC(=O)[C@H](Cc1ccccc1)NC(=O)[C@H](CO)NC(=O)CNC(=O)[C@H](CC(=O)O)NC(=O)CNC(=O)[C@@H](N)Cc1c[nH]cn1)[C@@H](C)O)[C@@H](C)CC)C(=O)N[C@@H](CC(N)=O)C(=O)N[C@@H](Cc1c[nH]c2ccccc12)C(=O)N[C@@H](CC(C)C)C(=O)N[C@H](C(=O)N[C@@H](CCC(N)=O)C(=O)N[C@H](C(=O)N[C@@H](CCCCN)C(=O)N[C@H](C(=O)N[C@H](C(=O)N[C@@H](CC(=O)O)C(=O)O)[C@@H](C)O)[C@@H](C)CC)[C@@H](C)O)[C@@H](C)CC [teduglutide]
half-life (compared with seven minutes for native GLP-2): about two

GLP-2 [3-33]: truncated GLP-2 [3-33] (DGSFSDEMNTILDNLAARDFINWLIQTKITD; Glucagon-like peptide 2; UniProt P01275 148-178, looked up, fragment)
half-life in humans: 27 min
